Test results taken from paper PMC12494035.

Target: coatomer (COPI heptamer) (Mus musculus) (UniProt Q8CIE6)
Test: cryo-EM structure; cryo-electron tomography and subtomogram averaging of COPI-coated vesicles and buds from an in vitro budding reaction: liposomes with 3 mol % PI4P (0.23 mg/ml), GTPγS 0.5 mM, COPI 1.36 μM, Arf1 20 μM, ARNO 4 μM, GOLPH3 9 μM; 50 mM Hepes pH 7.2, 125 mM KOAc, 30 min at 37°C; 7.5 Å map, model by rigid body fitting of domains from AlphaFold 3 predictions

Arf1, sequence (P84077 whole entry, the tested form may be a part): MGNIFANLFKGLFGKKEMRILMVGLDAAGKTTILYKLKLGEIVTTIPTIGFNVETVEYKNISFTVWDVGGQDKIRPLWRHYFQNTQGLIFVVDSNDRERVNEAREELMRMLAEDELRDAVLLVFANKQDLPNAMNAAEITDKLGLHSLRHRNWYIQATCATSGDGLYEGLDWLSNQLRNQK

- stoichiometry N (per COPI heptamer): 2
Substance: Arf1 (from UniProt P84077 1-181) (natural protein)
